Data: US20210275586A1

Biological target: CD20 antigen on CD20 positive Jeko-1 cells (human) (UniProt P11836)
Assay: flow cytometry on CD20+ Jeko-1 cells, secondary staining with anti-Biotin APC

Sequence of UniProt P11836 (P11836 whole entry): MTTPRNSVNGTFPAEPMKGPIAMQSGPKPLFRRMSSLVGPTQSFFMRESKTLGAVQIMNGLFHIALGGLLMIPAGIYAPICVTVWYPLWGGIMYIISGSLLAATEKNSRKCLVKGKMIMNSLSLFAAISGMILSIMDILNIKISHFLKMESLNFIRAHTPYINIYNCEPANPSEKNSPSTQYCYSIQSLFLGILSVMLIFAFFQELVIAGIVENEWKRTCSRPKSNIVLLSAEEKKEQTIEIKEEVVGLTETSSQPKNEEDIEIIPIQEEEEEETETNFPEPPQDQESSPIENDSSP

Q: How did the lowest concentration at which binding was detected turn out when “biotin-crosslinker conjugated anti-CD20 FAb (Rtx Fab MS2)” was run?
A: 0.1 µg/mL
